The results in this text go back to IntAct's records for PubMed 35512704.

B1: Speckle-type POZ protein (Homo sapiens), O43791 (parent)
chain: MSRVPSPPPPAEMSSGPVAESWCYTQIKVVKFSYMWTINNFSFCREEMGEVIKSSTFSSGANDKLKWCLRVNPKGLDEESKDYLSLYLLLVSCPKSEVRAKFKFSILNAKGEETKAMESQRAYRFVQGKDWGFKKFIRRDFLLDEANGLLPDDKLTLFCEVSVVQDSVNISGQNTMNMVKVPECRLADELGGLWENSRFTDCCLCVAGQEFQAHKAILAARSPVFSAMFEHEMEESKKNRVEINDVEPEVFKEMMCFIYTGKAPNLDKMADDLLAAADKYALERLKVMCEDALCSNLSVENAAEILILADLHSADQLKTQAVDFINYHASDVLETSGWKSMVVSHPHLVAEAYRSLASAQCPFLGPPRKRLKQS

In the first experiment the parent is B1. Particulars: with ist1_human IST1, P53990.
Sequence of ist1_human IST1, P53990 (P53990 whole entry): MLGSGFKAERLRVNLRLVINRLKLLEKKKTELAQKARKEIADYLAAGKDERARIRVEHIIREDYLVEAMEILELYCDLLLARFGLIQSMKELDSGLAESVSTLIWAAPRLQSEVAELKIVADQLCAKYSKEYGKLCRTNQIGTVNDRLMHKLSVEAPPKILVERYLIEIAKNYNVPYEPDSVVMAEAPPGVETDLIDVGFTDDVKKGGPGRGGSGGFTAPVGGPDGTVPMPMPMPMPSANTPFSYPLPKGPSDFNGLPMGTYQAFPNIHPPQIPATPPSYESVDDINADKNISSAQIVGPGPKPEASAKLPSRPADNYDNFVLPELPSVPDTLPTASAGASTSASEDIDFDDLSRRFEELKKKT
As to MSRVPSPPPPAEMSSGPVAESWCYTQIKVVKFSYMWTINNFSFCREEMGEVIKSSTFSSGANDKLKWCLRVNPKGLDEESKDYLSLCLLLVSCPKSEVRAKFKFSILNAKGEETKAMESQRAYRFVQGKDWGFKKFIRRDFLLDEANGLLPDDKLTLFCEVSVVQDSVNISGQNTMNMVKVPECRLADELGGLWENSRFTDCCLCVAGQEFQAHKAILAARSPVFSAMFEHEMEESKKNRVEINDVEPEVFKEMMCFIYTGKAPNLDKMADDLLAAADKYALERLKVMCEDALCSNLSVENAAEILILADLHSADQLKTQAVDFINYHASDVLETSGWKSMVVSHPHLVAEAYRSLASAQCPFLGPPRKRLKQS [Y87C], the “effect of a mutation on the interaction” value is on record as “with no effect”.

Variants of B1 are the subject of a further experiment. The conditions noted are these: with jak1_human JAK1, P23458.
Sequence of jak1_human JAK1, P23458 (P23458 whole entry): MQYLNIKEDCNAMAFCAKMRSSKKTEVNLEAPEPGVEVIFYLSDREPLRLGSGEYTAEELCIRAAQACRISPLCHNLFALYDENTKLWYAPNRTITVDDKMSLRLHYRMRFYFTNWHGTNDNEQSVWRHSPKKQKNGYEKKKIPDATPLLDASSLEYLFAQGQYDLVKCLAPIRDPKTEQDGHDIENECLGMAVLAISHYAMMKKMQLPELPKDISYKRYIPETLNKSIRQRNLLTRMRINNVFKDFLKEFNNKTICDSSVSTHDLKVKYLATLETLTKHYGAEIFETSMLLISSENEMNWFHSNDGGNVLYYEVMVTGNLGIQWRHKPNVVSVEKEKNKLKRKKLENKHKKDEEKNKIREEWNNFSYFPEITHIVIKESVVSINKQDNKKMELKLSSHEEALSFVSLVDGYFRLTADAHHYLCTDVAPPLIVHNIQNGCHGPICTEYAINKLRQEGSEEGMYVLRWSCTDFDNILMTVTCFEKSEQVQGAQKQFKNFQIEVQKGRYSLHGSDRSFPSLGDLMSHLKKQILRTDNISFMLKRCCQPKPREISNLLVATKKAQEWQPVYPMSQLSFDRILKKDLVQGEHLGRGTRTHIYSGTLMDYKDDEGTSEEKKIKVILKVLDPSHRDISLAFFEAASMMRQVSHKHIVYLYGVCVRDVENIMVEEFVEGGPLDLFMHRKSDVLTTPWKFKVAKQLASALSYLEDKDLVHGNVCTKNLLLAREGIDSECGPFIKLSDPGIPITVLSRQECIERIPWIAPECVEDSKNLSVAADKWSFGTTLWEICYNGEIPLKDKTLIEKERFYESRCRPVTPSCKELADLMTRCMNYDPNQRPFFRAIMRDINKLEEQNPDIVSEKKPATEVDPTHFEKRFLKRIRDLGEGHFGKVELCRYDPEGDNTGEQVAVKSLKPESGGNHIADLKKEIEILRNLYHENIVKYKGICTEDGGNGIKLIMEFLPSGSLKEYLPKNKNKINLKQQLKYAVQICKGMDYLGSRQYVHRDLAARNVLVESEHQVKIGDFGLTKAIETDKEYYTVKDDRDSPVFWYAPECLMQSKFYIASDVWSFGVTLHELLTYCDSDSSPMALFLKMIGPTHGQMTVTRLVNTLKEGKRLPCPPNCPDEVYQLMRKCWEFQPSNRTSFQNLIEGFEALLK
With MSRVPSPPPPAEMSSGPVAESWCYTQIKVVKFSYMWTINNFSFCREEMGEVIKSSTFSSGANDKLKWCLRVNPKGLDEESKDYLSLCLLLVSCPKSEVRAKFKFSILNAKGEETKAMESQRAYRFVQGKDWGFKKFIRRDFLLDEANGLLPDDKLTLFCEVSVVQDSVNISGQNTMNMVKVPECRLADELGGLWENSRFTDCCLCVAGQEFQAHKAILAARSPVFSAMFEHEMEESKKNRVEINDVEPEVFKEMMCFIYTGKAPNLDKMADDLLAAADKYALERLKVMCEDALCSNLSVENAAEILILADLHSADQLKTQAVDFINYHASDVLETSGWKSMVVSHPHLVAEAYRSLASAQCPFLGPPRKRLKQS [Y87C], the “effect of a mutation on the interaction” value is recorded as “with no effect”.

The next experiment covers variants of B1. The conditions noted are these: with jak3_human JAK3, P52333.
Consider MSRVPSPPPPAEMSSGPVAESWCYTQIKVVKFSYMWTINNFSFCREEMGEVIKSSTFSSGANDKLKWCLRVNPKGLDEESKDYLSLCLLLVSCPKSEVRAKFKFSILNAKGEETKAMESQRAYRFVQGKDWGFKKFIRRDFLLDEANGLLPDDKLTLFCEVSVVQDSVNISGQNTMNMVKVPECRLADELGGLWENSRFTDCCLCVAGQEFQAHKAILAARSPVFSAMFEHEMEESKKNRVEINDVEPEVFKEMMCFIYTGKAPNLDKMADDLLAAADKYALERLKVMCEDALCSNLSVENAAEILILADLHSADQLKTQAVDFINYHASDVLETSGWKSMVVSHPHLVAEAYRSLASAQCPFLGPPRKRLKQS [Y87C], for which the “effect of a mutation on the interaction” value is reported as “with no effect”.

Variants of B1 are the subject of another experiment. The conditions noted are these: with kat2a_human KAT2A.
Take MSRVPSPPPPAEMSSGPVAESWCYTQIKVVKFSYMWTINNFSFCREEMGEVIKSSTFSSGANDKLKWCLRVNPKGLDEESKDYLSLCLLLVSCPKSEVRAKFKFSILNAKGEETKAMESQRAYRFVQGKDWGFKKFIRRDFLLDEANGLLPDDKLTLFCEVSVVQDSVNISGQNTMNMVKVPECRLADELGGLWENSRFTDCCLCVAGQEFQAHKAILAARSPVFSAMFEHEMEESKKNRVEINDVEPEVFKEMMCFIYTGKAPNLDKMADDLLAAADKYALERLKVMCEDALCSNLSVENAAEILILADLHSADQLKTQAVDFINYHASDVLETSGWKSMVVSHPHLVAEAYRSLASAQCPFLGPPRKRLKQS [Y87C]: the “effect of a mutation on the interaction” value is reported as “with no effect”.

Variants of B1 are the subject of another experiment. The conditions noted are these: with kdm5a_human KDM5A.
Regarding MSRVPSPPPPAEMSSGPVAESWCYTQIKVVKFSYMWTINNFSFCREEMGEVIKSSTFSSGANDKLKWCLRVNPKGLDEESKDYLSLCLLLVSCPKSEVRAKFKFSILNAKGEETKAMESQRAYRFVQGKDWGFKKFIRRDFLLDEANGLLPDDKLTLFCEVSVVQDSVNISGQNTMNMVKVPECRLADELGGLWENSRFTDCCLCVAGQEFQAHKAILAARSPVFSAMFEHEMEESKKNRVEINDVEPEVFKEMMCFIYTGKAPNLDKMADDLLAAADKYALERLKVMCEDALCSNLSVENAAEILILADLHSADQLKTQAVDFINYHASDVLETSGWKSMVVSHPHLVAEAYRSLASAQCPFLGPPRKRLKQS [Y87C], the “effect of a mutation on the interaction” value was “with no effect”.

Variants of B1 are the subject of a further experiment. Particulars: with kdm5c_human KDM5C.
Turning to MSRVPSPPPPAEMSSGPVAESWCYTQIKVVKFSYMWTINNFSFCREEMGEVIKSSTFSSGANDKLKWCLRVNPKGLDEESKDYLSLCLLLVSCPKSEVRAKFKFSILNAKGEETKAMESQRAYRFVQGKDWGFKKFIRRDFLLDEANGLLPDDKLTLFCEVSVVQDSVNISGQNTMNMVKVPECRLADELGGLWENSRFTDCCLCVAGQEFQAHKAILAARSPVFSAMFEHEMEESKKNRVEINDVEPEVFKEMMCFIYTGKAPNLDKMADDLLAAADKYALERLKVMCEDALCSNLSVENAAEILILADLHSADQLKTQAVDFINYHASDVLETSGWKSMVVSHPHLVAEAYRSLASAQCPFLGPPRKRLKQS [Y87C], the “effect of a mutation on the interaction” value is given as “with no effect”.

The variants in another experiment derive from B1. Particulars: with kdm6a_human KDM6A.
In the case of MSRVPSPPPPAEMSSGPVAESWCYTQIKVVKFSYMWTINNFSFCREEMGEVIKSSTFSSGANDKLKWCLRVNPKGLDEESKDYLSLCLLLVSCPKSEVRAKFKFSILNAKGEETKAMESQRAYRFVQGKDWGFKKFIRRDFLLDEANGLLPDDKLTLFCEVSVVQDSVNISGQNTMNMVKVPECRLADELGGLWENSRFTDCCLCVAGQEFQAHKAILAARSPVFSAMFEHEMEESKKNRVEINDVEPEVFKEMMCFIYTGKAPNLDKMADDLLAAADKYALERLKVMCEDALCSNLSVENAAEILILADLHSADQLKTQAVDFINYHASDVLETSGWKSMVVSHPHLVAEAYRSLASAQCPFLGPPRKRLKQS [Y87C], the “effect of a mutation on the interaction” value is on record as “with no effect”.

The next experiment covers variants of B1. Particulars: with vgfr2_human KDR.
For the variant MSRVPSPPPPAEMSSGPVAESWCYTQIKVVKFSYMWTINNFSFCREEMGEVIKSSTFSSGANDKLKWCLRVNPKGLDEESKDYLSLCLLLVSCPKSEVRAKFKFSILNAKGEETKAMESQRAYRFVQGKDWGFKKFIRRDFLLDEANGLLPDDKLTLFCEVSVVQDSVNISGQNTMNMVKVPECRLADELGGLWENSRFTDCCLCVAGQEFQAHKAILAARSPVFSAMFEHEMEESKKNRVEINDVEPEVFKEMMCFIYTGKAPNLDKMADDLLAAADKYALERLKVMCEDALCSNLSVENAAEILILADLHSADQLKTQAVDFINYHASDVLETSGWKSMVVSHPHLVAEAYRSLASAQCPFLGPPRKRLKQS [Y87C], the “effect of a mutation on the interaction” value is reported as “with no effect”.

Variants of B1 are the subject of another experiment. The conditions noted are these: with lims1_human LIMS1, P48059.
Sequence of lims1_human LIMS1, P48059 (P48059 whole entry): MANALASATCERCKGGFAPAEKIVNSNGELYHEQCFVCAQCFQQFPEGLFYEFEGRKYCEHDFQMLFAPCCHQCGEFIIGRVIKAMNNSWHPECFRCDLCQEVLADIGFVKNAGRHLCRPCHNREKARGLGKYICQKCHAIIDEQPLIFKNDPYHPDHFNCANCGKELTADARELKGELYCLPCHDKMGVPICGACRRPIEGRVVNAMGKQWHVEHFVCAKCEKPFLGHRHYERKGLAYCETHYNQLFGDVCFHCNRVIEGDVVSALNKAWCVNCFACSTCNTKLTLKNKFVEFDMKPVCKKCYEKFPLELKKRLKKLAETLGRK
On to MSRVPSPPPPAEMSSGPVAESWCYTQIKVVKFSYMWTINNFSFCREEMGEVIKSSTFSSGANDKLKWCLRVNPKGLDEESKDYLSLCLLLVSCPKSEVRAKFKFSILNAKGEETKAMESQRAYRFVQGKDWGFKKFIRRDFLLDEANGLLPDDKLTLFCEVSVVQDSVNISGQNTMNMVKVPECRLADELGGLWENSRFTDCCLCVAGQEFQAHKAILAARSPVFSAMFEHEMEESKKNRVEINDVEPEVFKEMMCFIYTGKAPNLDKMADDLLAAADKYALERLKVMCEDALCSNLSVENAAEILILADLHSADQLKTQAVDFINYHASDVLETSGWKSMVVSHPHLVAEAYRSLASAQCPFLGPPRKRLKQS [Y87C], for which the “effect of a mutation on the interaction” value was “with no effect”.

The variants in the next experiment derive from B1. The conditions noted are these: with maga6_human MAGEA6, P43360.
As for MSRVPSPPPPAEMSSGPVAESWCYTQIKVVKFSYMWTINNFSFCREEMGEVIKSSTFSSGANDKLKWCLRVNPKGLDEESKDYLSLCLLLVSCPKSEVRAKFKFSILNAKGEETKAMESQRAYRFVQGKDWGFKKFIRRDFLLDEANGLLPDDKLTLFCEVSVVQDSVNISGQNTMNMVKVPECRLADELGGLWENSRFTDCCLCVAGQEFQAHKAILAARSPVFSAMFEHEMEESKKNRVEINDVEPEVFKEMMCFIYTGKAPNLDKMADDLLAAADKYALERLKVMCEDALCSNLSVENAAEILILADLHSADQLKTQAVDFINYHASDVLETSGWKSMVVSHPHLVAEAYRSLASAQCPFLGPPRKRLKQS [Y87C], the “effect of a mutation on the interaction” value is “with no effect”.

The variants in another experiment derive from B1. The conditions noted are these: with m3k1_human MAP3K1, Q13233.
Sequence of m3k1_human MAP3K1, Q13233 (Q13233 whole entry): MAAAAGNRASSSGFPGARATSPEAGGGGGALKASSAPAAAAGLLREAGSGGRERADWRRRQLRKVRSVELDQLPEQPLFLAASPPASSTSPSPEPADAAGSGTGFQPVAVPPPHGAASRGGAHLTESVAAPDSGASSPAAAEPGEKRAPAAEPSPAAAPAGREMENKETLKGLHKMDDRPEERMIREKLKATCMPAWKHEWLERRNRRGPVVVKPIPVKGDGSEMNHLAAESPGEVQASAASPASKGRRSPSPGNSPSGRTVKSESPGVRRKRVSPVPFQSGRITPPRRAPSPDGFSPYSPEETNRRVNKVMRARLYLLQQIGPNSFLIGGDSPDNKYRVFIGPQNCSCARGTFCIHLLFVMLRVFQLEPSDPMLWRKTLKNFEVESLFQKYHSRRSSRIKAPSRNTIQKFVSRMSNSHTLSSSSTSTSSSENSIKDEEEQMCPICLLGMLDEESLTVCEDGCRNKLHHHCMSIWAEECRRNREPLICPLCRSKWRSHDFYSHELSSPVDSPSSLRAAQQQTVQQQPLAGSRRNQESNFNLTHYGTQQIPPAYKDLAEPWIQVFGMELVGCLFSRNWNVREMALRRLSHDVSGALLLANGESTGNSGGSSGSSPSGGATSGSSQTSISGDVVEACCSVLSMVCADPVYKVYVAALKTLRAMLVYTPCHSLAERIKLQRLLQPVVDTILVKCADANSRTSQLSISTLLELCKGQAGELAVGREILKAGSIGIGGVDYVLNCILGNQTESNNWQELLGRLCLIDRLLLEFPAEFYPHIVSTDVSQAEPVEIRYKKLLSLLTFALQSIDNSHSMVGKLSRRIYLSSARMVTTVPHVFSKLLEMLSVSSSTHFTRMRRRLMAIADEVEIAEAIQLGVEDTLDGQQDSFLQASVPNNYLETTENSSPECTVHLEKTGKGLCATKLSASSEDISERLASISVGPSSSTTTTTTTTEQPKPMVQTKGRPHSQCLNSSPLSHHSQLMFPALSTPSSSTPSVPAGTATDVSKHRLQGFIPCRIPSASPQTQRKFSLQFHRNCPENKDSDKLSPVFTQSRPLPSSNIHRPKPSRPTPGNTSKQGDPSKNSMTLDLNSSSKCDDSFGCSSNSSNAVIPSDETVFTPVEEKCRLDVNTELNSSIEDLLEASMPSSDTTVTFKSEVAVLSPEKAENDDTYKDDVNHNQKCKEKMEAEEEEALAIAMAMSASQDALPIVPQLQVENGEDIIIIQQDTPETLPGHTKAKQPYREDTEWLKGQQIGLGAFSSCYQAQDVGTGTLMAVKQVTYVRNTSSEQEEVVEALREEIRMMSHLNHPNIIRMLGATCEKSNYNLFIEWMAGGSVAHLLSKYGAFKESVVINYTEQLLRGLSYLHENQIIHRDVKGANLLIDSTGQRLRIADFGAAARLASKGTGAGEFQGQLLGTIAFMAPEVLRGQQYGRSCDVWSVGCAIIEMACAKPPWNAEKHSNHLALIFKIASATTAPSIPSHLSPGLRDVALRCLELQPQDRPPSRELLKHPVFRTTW
For MSRVPSPPPPAEMSSGPVAESWCYTQIKVVKFSYMWTINNFSFCREEMGEVIKSSTFSSGANDKLKWCLRVNPKGLDEESKDYLSLCLLLVSCPKSEVRAKFKFSILNAKGEETKAMESQRAYRFVQGKDWGFKKFIRRDFLLDEANGLLPDDKLTLFCEVSVVQDSVNISGQNTMNMVKVPECRLADELGGLWENSRFTDCCLCVAGQEFQAHKAILAARSPVFSAMFEHEMEESKKNRVEINDVEPEVFKEMMCFIYTGKAPNLDKMADDLLAAADKYALERLKVMCEDALCSNLSVENAAEILILADLHSADQLKTQAVDFINYHASDVLETSGWKSMVVSHPHLVAEAYRSLASAQCPFLGPPRKRLKQS [Y87C], the “effect of a mutation on the interaction” value was “with no effect”.

In a further experiment the parent is B1. Particulars: with mk10_human MAPK10, P53779.
Sequence of mk10_human MAPK10, P53779 (P53779 whole entry): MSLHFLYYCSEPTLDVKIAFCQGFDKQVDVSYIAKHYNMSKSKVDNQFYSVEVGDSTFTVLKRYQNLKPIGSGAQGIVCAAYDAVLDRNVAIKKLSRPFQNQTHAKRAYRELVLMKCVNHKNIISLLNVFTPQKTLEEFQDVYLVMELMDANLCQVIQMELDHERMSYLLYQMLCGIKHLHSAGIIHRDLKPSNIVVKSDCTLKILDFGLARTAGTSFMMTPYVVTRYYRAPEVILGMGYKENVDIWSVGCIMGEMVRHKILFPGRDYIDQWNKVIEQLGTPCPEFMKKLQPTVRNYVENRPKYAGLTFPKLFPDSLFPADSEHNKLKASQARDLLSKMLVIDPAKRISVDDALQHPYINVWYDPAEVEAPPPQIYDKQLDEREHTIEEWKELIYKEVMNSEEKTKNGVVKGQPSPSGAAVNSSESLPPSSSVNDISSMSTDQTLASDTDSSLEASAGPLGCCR
Turning to MSRVPSPPPPAEMSSGPVAESWCYTQIKVVKFSYMWTINNFSFCREEMGEVIKSSTFSSGANDKLKWCLRVNPKGLDEESKDYLSLCLLLVSCPKSEVRAKFKFSILNAKGEETKAMESQRAYRFVQGKDWGFKKFIRRDFLLDEANGLLPDDKLTLFCEVSVVQDSVNISGQNTMNMVKVPECRLADELGGLWENSRFTDCCLCVAGQEFQAHKAILAARSPVFSAMFEHEMEESKKNRVEINDVEPEVFKEMMCFIYTGKAPNLDKMADDLLAAADKYALERLKVMCEDALCSNLSVENAAEILILADLHSADQLKTQAVDFINYHASDVLETSGWKSMVVSHPHLVAEAYRSLASAQCPFLGPPRKRLKQS [Y87C], the “effect of a mutation on the interaction” value is “with no effect”.

Variants of B1 are the subject of a further experiment. The conditions noted are these: with mk14_human MAPK14, Q16539.
Sequence of mk14_human MAPK14, Q16539 (Q16539 whole entry): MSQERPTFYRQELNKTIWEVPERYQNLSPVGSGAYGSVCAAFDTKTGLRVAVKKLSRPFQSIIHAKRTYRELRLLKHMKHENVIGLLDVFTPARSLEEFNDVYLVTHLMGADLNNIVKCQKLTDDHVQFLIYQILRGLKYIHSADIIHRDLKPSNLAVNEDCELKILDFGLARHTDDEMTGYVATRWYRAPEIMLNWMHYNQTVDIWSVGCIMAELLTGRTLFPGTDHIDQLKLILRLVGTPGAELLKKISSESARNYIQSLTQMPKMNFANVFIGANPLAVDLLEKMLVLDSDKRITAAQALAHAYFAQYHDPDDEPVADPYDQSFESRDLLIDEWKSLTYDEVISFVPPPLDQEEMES
For the variant MSRVPSPPPPAEMSSGPVAESWCYTQIKVVKFSYMWTINNFSFCREEMGEVIKSSTFSSGANDKLKWCLRVNPKGLDEESKDYLSLCLLLVSCPKSEVRAKFKFSILNAKGEETKAMESQRAYRFVQGKDWGFKKFIRRDFLLDEANGLLPDDKLTLFCEVSVVQDSVNISGQNTMNMVKVPECRLADELGGLWENSRFTDCCLCVAGQEFQAHKAILAARSPVFSAMFEHEMEESKKNRVEINDVEPEVFKEMMCFIYTGKAPNLDKMADDLLAAADKYALERLKVMCEDALCSNLSVENAAEILILADLHSADQLKTQAVDFINYHASDVLETSGWKSMVVSHPHLVAEAYRSLASAQCPFLGPPRKRLKQS [Y87C], the “effect of a mutation on the interaction” value is given as “with no effect”.

The variants in a further experiment derive from B1. Particulars: with mk03_human MAPK3, P27361.
For MSRVPSPPPPAEMSSGPVAESWCYTQIKVVKFSYMWTINNFSFCREEMGEVIKSSTFSSGANDKLKWCLRVNPKGLDEESKDYLSLCLLLVSCPKSEVRAKFKFSILNAKGEETKAMESQRAYRFVQGKDWGFKKFIRRDFLLDEANGLLPDDKLTLFCEVSVVQDSVNISGQNTMNMVKVPECRLADELGGLWENSRFTDCCLCVAGQEFQAHKAILAARSPVFSAMFEHEMEESKKNRVEINDVEPEVFKEMMCFIYTGKAPNLDKMADDLLAAADKYALERLKVMCEDALCSNLSVENAAEILILADLHSADQLKTQAVDFINYHASDVLETSGWKSMVVSHPHLVAEAYRSLASAQCPFLGPPRKRLKQS [Y87C], the “effect of a mutation on the interaction” value is “with no effect”.

In another experiment the parent is B1. Particulars: with mk04_human MAPK4, P31152.
Sequence of mk04_human MAPK4, P31152 (P31152 whole entry): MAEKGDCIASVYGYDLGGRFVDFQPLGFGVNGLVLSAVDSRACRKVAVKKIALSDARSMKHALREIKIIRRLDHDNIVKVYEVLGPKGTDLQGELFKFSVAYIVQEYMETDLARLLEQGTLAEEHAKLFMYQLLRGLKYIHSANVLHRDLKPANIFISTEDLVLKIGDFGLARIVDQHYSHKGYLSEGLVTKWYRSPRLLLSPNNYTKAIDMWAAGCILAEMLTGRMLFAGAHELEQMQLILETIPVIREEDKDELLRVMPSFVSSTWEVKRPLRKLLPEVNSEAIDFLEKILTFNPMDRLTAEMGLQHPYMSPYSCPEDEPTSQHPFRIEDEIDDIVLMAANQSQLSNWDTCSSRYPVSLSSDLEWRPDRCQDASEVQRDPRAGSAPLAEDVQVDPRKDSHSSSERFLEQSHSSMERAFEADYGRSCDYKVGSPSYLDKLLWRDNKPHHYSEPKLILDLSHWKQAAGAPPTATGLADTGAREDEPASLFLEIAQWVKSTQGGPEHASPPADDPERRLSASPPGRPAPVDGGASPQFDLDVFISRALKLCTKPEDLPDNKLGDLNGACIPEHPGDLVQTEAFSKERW
Regarding MSRVPSPPPPAEMSSGPVAESWCYTQIKVVKFSYMWTINNFSFCREEMGEVIKSSTFSSGANDKLKWCLRVNPKGLDEESKDYLSLCLLLVSCPKSEVRAKFKFSILNAKGEETKAMESQRAYRFVQGKDWGFKKFIRRDFLLDEANGLLPDDKLTLFCEVSVVQDSVNISGQNTMNMVKVPECRLADELGGLWENSRFTDCCLCVAGQEFQAHKAILAARSPVFSAMFEHEMEESKKNRVEINDVEPEVFKEMMCFIYTGKAPNLDKMADDLLAAADKYALERLKVMCEDALCSNLSVENAAEILILADLHSADQLKTQAVDFINYHASDVLETSGWKSMVVSHPHLVAEAYRSLASAQCPFLGPPRKRLKQS [Y87C], the “effect of a mutation on the interaction” value was “with no effect”.
